Experimental findings from paper PMC10397247 are described below.

What all share (experiment): two-hybrid library CCNG1;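 note: natural log of median RNA to DNA barcode read ratio; higher means stronger binding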
One assay addresses T1, 4H584-bH.
T1 chain: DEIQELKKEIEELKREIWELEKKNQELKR

The next assay has as its target T2, 4H619-bH.
T2 chain: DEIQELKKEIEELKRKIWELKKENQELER

In another assay the target is T3, 4H1804-bH.
T3 chain: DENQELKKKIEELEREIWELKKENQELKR

The next assay has as its target T4, 4H3129-bH.
T4 chain: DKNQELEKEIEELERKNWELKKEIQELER

For another assay, the target named is T5, 4H1449-bH.
T5 chain: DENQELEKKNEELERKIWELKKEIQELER

The next assay addresses T6, 4H3974-bH.
T6 chain: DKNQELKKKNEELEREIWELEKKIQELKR

Another assay has as its target T7, 4H1710-bH.
T7 chain: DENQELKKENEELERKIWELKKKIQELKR

Another assay concerns the target T8, 4H3172-bH.
T8 chain: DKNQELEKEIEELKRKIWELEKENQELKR

The target of the next assay is T9, 4H1393-bH.
T9 chain: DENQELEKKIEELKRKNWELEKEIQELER

Another assay concerns the target T10, 4H3638-bH.
T10 chain: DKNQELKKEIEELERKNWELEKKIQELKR

The target of another assay is T11, 4H850-bH.
T11 chain: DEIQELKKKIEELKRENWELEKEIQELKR

For another assay, the target named is T12, 4H3628-bA.
T12 chain: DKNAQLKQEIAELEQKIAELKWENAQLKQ

The target of a further assay is T13, 4H2702-bA.
T13 chain: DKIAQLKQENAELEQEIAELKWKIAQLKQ

The target of another assay is T14, 4H3817-bH.
T14 chain: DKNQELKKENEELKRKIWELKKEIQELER

The target of another assay is T15, 4H3414-bH.
T15 chain: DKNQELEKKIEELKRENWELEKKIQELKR

For another assay, the target named is T16, 4H1629-bH.
T16 chain: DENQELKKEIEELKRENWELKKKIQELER

Another assay addresses T17, 4H906-bH.
T17 chain: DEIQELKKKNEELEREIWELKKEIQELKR

The target in another assay is T18, 4H570-bH.
T18 chain: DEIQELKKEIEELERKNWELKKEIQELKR

A further assay has as its target T19, 4H3907-bN.
T19 chain: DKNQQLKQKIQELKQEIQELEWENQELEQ

The target of a further assay is T20, 4H3961-bN.
T20 chain: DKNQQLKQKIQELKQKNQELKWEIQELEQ

Another assay addresses T21, 4H363-bN.
T21 chain: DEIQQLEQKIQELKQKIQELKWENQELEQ

Another assay concerns the target T22, 4H2745-bN.
T22 chain: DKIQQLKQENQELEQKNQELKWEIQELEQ

The next assay addresses T23, 4H470-bN.
T23 chain: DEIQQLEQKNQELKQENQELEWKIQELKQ

A further assay deals with T24, 4H344-bN.
T24 chain: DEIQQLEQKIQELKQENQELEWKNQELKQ

For a further assay, the target named is T25, 4H2619-bN.
T25 chain: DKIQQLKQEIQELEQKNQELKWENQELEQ

The next assay concerns the target T26, 4H2568-bN.
T26 chain: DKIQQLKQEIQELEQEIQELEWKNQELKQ

For the molecule DENQELEKKIEELKRKNWELEKEIQELER [4H1393-bH], the interaction score in the assay with 4H584-bH was -0.3; with 4H619-bH, -1.79; with 4H1804-bH, -1.63; with 4H3129-bH, 0.0961; in the assay with 4H1449-bH it was -2.77; with 4H3974-bH it was 0.0308. In addition, the interaction score in the assay with 4H1710-bH was -0.501; in the assay with 4H3172-bH it was -0.553; with 4H1393-bH, -0.111; in the assay with 4H3638-bH, 1.2; in the assay with 4H850-bH it was 0.00584; in the assay with 4H3628-bA it was -0.789. The interaction score with 4H2702-bA was -2.15; with 4H3817-bH it was -0.474; in the assay with 4H3414-bH, 1; with 4H1629-bH, -0.557; with 4H906-bH, -1.05; with 4H570-bH, -0.453.

DKIQQLKQEIQELEQEIQELEWKNQELKQ [4H2568-bN]: the interaction score was 0.402 in the assay with 4H3907-bN; 1.52 with 4H3961-bN; 0.932 with 4H363-bN; -1.2 in the assay with 4H2745-bN; 0.618 with 4H470-bN; -0.22 with 4H344-bN. Also, the interaction score with 4H2619-bN is -0.118; in the assay with 4H2568-bN, 0.798.
